In test [1] the target is binding of FAM19A5 protein to LRRC4B (amino acids 453-576)-hFc (Homo sapiens, UniProt Q7Z5A7). The test can be described thus: Competitive inhibition assay, plate coated with LRRC4B (amino acids 453-576)-hFc, peptides at 20 nM. An excerpt: (§1) Next, to assess whether polypeptides comprising the binding domains of LRRC4 or LRRC4C proteins can have similar inhibitory effects on LRRC4B protein binding, the following synthetic peptides were constructed: (1) FBC4-23 (contains the binding domain of the LRRC4 protein, i.e., YSFFTTVTVETTE); and (2) FBC4C-23 (contains the binding domain of the LRRC4C protein, i.e., FSYFSTVTVETME). Then, the ability of the peptides to inhibit the binding of LRRC4 protein family members to FAM19A5 protein was assessed using a competitive inhibition assay. Briefly, plates were coated with 100 nM of either LRRC4B protein fragment #1 (amino acids 36-576 of SEQ ID NO: 2; SEQ ID NO: 5) or LRRC4B protein fragment #2 (amino acids 453-576 of SEQ ID NO: 2; SEQ ID NO: 7). Then, recombinant FAM19A5 protein (5 ng/ml for plates coated with LRRC4B fragment #1; and 1 ng/mL for plates coated with LRRC4B fragment #2) was added to the plates in combination with 20 nM of the FBC4-23, FBC4C-23, and FB-20 peptides. The plates were incubated at 37° C. and then, the amount of FAM19A5 protein bound to the coated LRRC4B protein fragments was assessed using HRP-conjugated anti-FAM19A5 (1-65) antibody.
Sequence of binding of FAM19A5 protein to LRRC4B (amino acids 453-576)-hFc (Q7Z5A7 44-132): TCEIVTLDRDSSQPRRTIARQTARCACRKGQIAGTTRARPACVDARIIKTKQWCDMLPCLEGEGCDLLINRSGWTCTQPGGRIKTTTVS
(§2) Next, to determine the minimal sequence required to inhibit the interaction of FAM19A5 and members of the LRRC4 protein family, ten FB-20 peptide variants were constructed by serially deleting one or more amino acids from the N-terminus or C-terminus of the FB-20 peptide. Then, a competitive inhibition assay was used to assess the ability of the different FB-20 peptide variants to inhibit the interaction between FAM19A5 and LRRC4B protein. Again, plates were coated with 100 nM of either LRRC4B protein fragment #1 (amino acids 36-576 of SEQ ID NO: 2; SEQ ID NO: 5) or LRRC4B protein fragment #2 (amino acids 453-576 of SEQ ID NO: 2; SEQ ID NO: 7). Then, recombinant FAM19A5 protein (5 ng/ml for plates coated with LRRC4B fragment #1; and 1 ng/mL for plates coated with LRRC4B fragment #2) was added to the plates in combination with 20 nM of the different peptides described above. After incubating the plates at 37° C., the amount of FAM19A5 protein bound to the coated LRRC4B protein fragments was assessed using HRP-conjugated anti-FAM19A5 (1-65) antibody.
To identify the critical amino acid residues, multiple FB-20 peptide mutants were constructed, in which the individual residues of the core binding domain (i.e., YTYFTTVTVETLE; SEQ ID NO: 15) were substituted with alanine (A) or asparagine (N). Then, the ability of these FB-20 peptide mutants to inhibit the interaction between LRRC4B and FAM19A5 proteins was assessed, as described in Examples 3 and 4.

For test [2], the target named is binding of FAM19A5 protein to full-length ectodomain of the LRRC4B protein (amino acids 36-576 of SEQ ID NO: 2) (Homo sapiens, UniProt Q7Z5A7). The test can be described thus: Competitive inhibition assay, plate coated with full-length ectodomain of LRRC4B (amino acids 36-576). The note with it: for inhibition of interaction between FAM19A5 and the coated LRRC4B protein fragments (in words): statement covers both coats, LRRC4B (36-576) and LRRC4B (453-576). As to the method:
Next, to further assess the role that the binding domain of the LRRC4B protein has on the interaction between FAM19A5 protein and members of the LRRC4 protein family, a competitive inhibition assay was used to determine whether different LRRC4B deletion constructs from Example 2 could inhibit the binding of FAM19A5 to the full-length ectodomain of the LRRC4B protein (i.e., amino acids 36-576 of SEQ ID NO: 2; SEQ ID NO: 5). Briefly, 100 nM of the full-length ectodomain of the LRRC4B protein was used to coat a plate, and then recombinant FAM19A5 protein (5 ng/mL) was added to the plate in combination with the following LRRC4B deletion constructs (increasing concentrations): (1) LRRC4B (453-576) (i.e., construct #11 in Table 6); (2) LRRC4B (453-576) mutant (comprises alanine substitutions at positions 488 and 489 of SEQ ID NO: 2; SEQ ID NO: 16); (3) LRRC4B (484-576) (i.e., construct #12 in Table 6); (4) LRRC4B (482-576); (5) LRRC4B (482-497); and (6) LRRC4B (498-576). The plates were incubated at 37° C., and then, the amount of FAM19A5 bound to the coated LRRC4B ectodomain protein was measured using HRP-conjugated anti-FAM19A5 (1-65) antibody.
As described in Example 3, there appeared to be much similarity in the binding domains of the different members of the LRRC4 family. […] Then, recombinant FAM19A5 protein (5 ng/mL) was added in combination with one of the following: (i) LRRC4B (484-576) protein fragment, (ii) LRRC4B (453-576, AA) protein fragment, and (iii) synthetic FB-20 peptide. The plates were incubated at 37° C., and then, the amount of FAM19A5 protein bound to the coated LRRC4, LRRC4B, or LRRC4C proteins was measured using anti-FAM19A5 (1-65) antibody.
as §1
as §2, with “antibody. […]” for “antibody.”

For test [3], the target named is T1, FAM19A5 protein (Homo sapiens, UniProt Q7Z5A7). Kind of test: competitive inhibition ELISA; competitor: coated LRRC4B(453-576)-hFc.
The target of test [4] is T1, FAM19A5 protein. Kind of test: competitive inhibition ELISA; competitor: coated LRRC4B(36-576)-hFc.
Where [5] appears, read: Table 10, alanine/asparagine mutants.
Setting [6] is: Table 9, deletion variants, 20 nM peptide, FAM19A5 1 ng/mL.
The mark [7] stands for this setting: Table 9, deletion variants, 20 nM peptide, FAM19A5 5 ng/ml.

The results in this text go back to patent US20240238445A1, “INHIBITORS AND USES THEREOF” (NEURACLE SCIENCE CO., LTD., priority 2021, published 2024).

Sequence of binding of FAM19A5 protein to full-length ectodomain of the LRRC4B protein (amino acids 36-576 of SEQ ID NO: 2) (Q7Z5A7 44-132): as above

In the case of GYNYFTTVTVETLETQPGEE [FB-20[N2]], in test [1] (setting [5]), the “Inhibition rate (%) LRRC4B (amino acids 453-576)-hFc” value is −2.0%. For the same molecule, the “Inhibition rate (%) LRRC4B (amino acids 36-576)-hFc” value in test [2] (setting [5]) is given as −0.7%.
For GYTYFTTVTVETLATQPGEE [FB-20[A13]] the same measures were 27.2% and 51.4%.
For KNYTYFTTVTVNKETQ [FB-m9dC], the “Inhibition rate (%) LRRC4B (amino acids 453-576)-hFc” value in test [1] (setting [6]) came to 2.7%. Further, in test [2] (20 nM peptide), the “inhibition of interaction between FAM19A5 and the coated LRRC4B protein fragments (in words)” value (“inhibition … (in words)” below) is “failed to significantly inhibit”. Also, in test [2] (setting [7]), the “Inhibition rate (%) LRRC4B (amino acids 36-576)-hFc” value worked out at 16.8%.
As for GYTYFNTVTVETLETQPGEE [FB-20[N5]], in test [1] (setting [5]), the “Inhibition rate (%) LRRC4B (amino acids 453-576)-hFc” value was 30.5%. Also, in test [2] (setting [5]), the “Inhibition rate (%) LRRC4B (amino acids 36-576)-hFc” value came out at 56.1%.
For the molecule GYTYFTTATVETLETQPGEE [FB-20[A7]], the “Inhibition rate (%) LRRC4B (amino acids 453-576)-hFc” value in test [1] (setting [5]) amounted to 7.9%. For the same molecule, in test [2] (setting [5]), the “Inhibition rate (%) LRRC4B (amino acids 36-576)-hFc” value is on record as 26.8%.
As for GYTYFTTVTNETLETQPGEE [FB-20[N9]], the “Inhibition rate (%) LRRC4B (amino acids 453-576)-hFc” value in test [1] (setting [5]) is given as 6.5%. Besides, the “Inhibition rate (%) LRRC4B (amino acids 36-576)-hFc” value in test [2] (setting [5]) worked out at 17.5%.
As for GNTYFTTVTVETLETQPGEE [FB-20[N1]], the “Inhibition rate (%) LRRC4B (amino acids 453-576)-hFc” value in test [1] (setting [5]) was 3.1%. For the same molecule, in test [2] (setting [5]), the “Inhibition rate (%) LRRC4B (amino acids 36-576)-hFc” value came to 11.9%.
Turning to KNYFTTVTVETNKETQ [FB-m9dN], in test [1] (setting [6]), the “Inhibition rate (%) LRRC4B (amino acids 453-576)-hFc” value is −1.6%. Besides, in test [2] (20 nM peptide), the “inhibition … (in words)” value is on record as “failed to significantly inhibit”. In addition, in test [2] (setting [7]), the “Inhibition rate (%) LRRC4B (amino acids 36-576)-hFc” value is given as 2.5%.
Regarding KNTTVTVETNKETQ [FB-m7dN], in test [1] (setting [6]), the “Inhibition rate (%) LRRC4B (amino acids 453-576)-hFc” value is recorded as −1.8%. In test [2] (20 nM peptide), the “inhibition … (in words)” value is given as “failed to significantly inhibit”. Moreover, in test [2] (setting [7]), the “Inhibition rate (%) LRRC4B (amino acids 36-576)-hFc” value is given as 2.0%.
On to GYAYFTTVTVETLETQPGEE [FB-20[A2]], for which the “Inhibition rate (%) LRRC4B (amino acids 453-576)-hFc” value in test [1] (setting [5]) is −0.4%. Besides, in test [2] (setting [5]), the “Inhibition rate (%) LRRC4B (amino acids 36-576)-hFc” value is 1.0%.
The matching figures for GYTAFTTVTVETLETQPGEE [FB-20[A3]]: 0.0% and 5.9%.
Regarding GYTYFTTVTVATLETQPGEE [FB-20[A10]], the “Inhibition rate (%) LRRC4B (amino acids 453-576)-hFc” value in test [1] (setting [5]) stood at 6.4%. Besides, the “Inhibition rate (%) LRRC4B (amino acids 36-576)-hFc” value in test [2] (setting [5]) was 19.6%.

B1: FB-20[N7] (peptide)
peptide: GYTYFTTNTVETLETQPGEE
B1: the Inhibition rate (%) with FAM19A5 protein [3] worked out at 8.3%; with FAM19A5 protein [4], 24.5%.

B2: FB-20[A2] (peptide)
peptide: GYAYFTTVTVETLETQPGEE
In the case of B2, the Inhibition rate (%) with FAM19A5 protein [3] is -0.4%; in the test with FAM19A5 protein [4] it was 1%.

B3: FB-20[N4] (peptide)
peptide: GYTYNTTVTVETLETQPGEE
In the case of B3, the Inhibition rate (%) was 2.5% with FAM19A5 protein [3] and -1.3% in the test with FAM19A5 protein [4].

B4: FB-20[N10] (peptide)
peptide: GYTYFTTVTVNTLETQPGEE
As to B4, the Inhibition rate (%) in the test with FAM19A5 protein [3] amounted to 10.8%; in the test with FAM19A5 protein [4], 27%.

B5: FB-20[N3] (peptide)
peptide: GYTNFTTVTVETLETQPGEE
Turning to B5, the Inhibition rate (%) is 4% with FAM19A5 protein [3] and -5% in the test with FAM19A5 protein [4].

B6: FB-20[N9] (peptide)
peptide: GYTYFTTVTNETLETQPGEE
Consider B6, for which the Inhibition rate (%) in the test with FAM19A5 protein [3] came to 6.5%; in the test with FAM19A5 protein [4] it was 17.5%.

B7: FB-20[A3] (peptide)
peptide: GYTAFTTVTVETLETQPGEE
With B7, the Inhibition rate (%) in the test with FAM19A5 protein [3] came to 0%; in the test with FAM19A5 protein [4], 5.9%.

B8: FB-20[A1] (peptide)
peptide: GATYFTTVTVETLETQPGEE
As to B8, the Inhibition rate (%) with FAM19A5 protein [3] is 3.6%; in the test with FAM19A5 protein [4], 17.2%.

B9: FB-20[N5] (peptide)
peptide: GYTYFNTVTVETLETQPGEE
Consider B9, for which the figures for the Inhibition rate (%) in the test with FAM19A5 protein [3] and in the test with FAM19A5 protein [4] were 30.5% and 56.1%, respectively.

B10: FB-20[N11] (peptide)
peptide: GYTYFTTVTVENLETQPGEE
For B10, the values for the Inhibition rate (%) in the test with FAM19A5 protein [3] and in the test with FAM19A5 protein [4] were 55.6% and 74.1%, respectively.

B11: FB-20[N6] (peptide)
peptide: GYTYFTNVTVETLETQPGEE
Consider B11, for which the Inhibition rate (%) with FAM19A5 protein [3] is -0.4%; in the test with FAM19A5 protein [4], -11.4%.

B12: FB-20[N1] (peptide)
peptide: GNTYFTTVTVETLETQPGEE
Take B12: the Inhibition rate (%) with FAM19A5 protein [3] came out at 3.1%; in the test with FAM19A5 protein [4], 11.9%.

B13: FB-20[A4] (peptide)
peptide: GYTYATTVTVETLETQPGEE
On to B13, for which the Inhibition rate (%) was found to be 1.5% with FAM19A5 protein [3] and 2.7% with FAM19A5 protein [4].

B14: FB-20[N2] (peptide)
peptide: GYNYFTTVTVETLETQPGEE
With B14, the Inhibition rate (%) is -2% with FAM19A5 protein [3] and -0.7% with FAM19A5 protein [4].

B15: FB-20[N8] (peptide)
peptide: GYTYFTTVNVETLETQPGEE
For B15, the Inhibition rate (%) with FAM19A5 protein [3] is -2.4%; with FAM19A5 protein [4] it was 2.9%.
